Measurements taken from the supplement of paper PMC9112550, “Optimization of the antimicrobial peptide Bac7 by deep mutational scanning” (BMC Biology, 2022).

Test system: Escherichia coli TOP10
Assay: shrunken log2 fold change of peptide-encoding DNA abundance (4.5 h post-induction vs induction); higher = less antimicrobial activity (less host growth inhibition)
Details: time post-induction: 4.5 h; library: site-saturation at positions 5, 18, 19, 20
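Further: peptides expressed intracellularly from a pBAD plasmid library in pooled LB shake-flask culture, induced with 0.3% L-arabinose, DNA abundance read by NGS, three biological replicates, DESeq2 with apeglm shrinkage.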

Sequence | shrunken log2 fold change
RRIRKRPPRLPRPRPRPFSVPRP | 0.034
RRIRWRPPRLPRPRPRPAPSPRP | 0.393
RRIRYRPPRLPRPRPRPAIQPRP | -0.316
RRIRRRPPRLPRPRPRPNQAPRP | 0.212
RRIRSRPPRLPRPRPRPENPPRP | -0.143
RRIRHRPPRLPRPRPRPNHNPRP | -0.954
RRIRWRPPRLPRPRPRPLILPRP | -0.604
RRIRHRPPRLPRPRPRPTRPPRP | 0.234
RRIRQRPPRLPRPRPRPCYGPRP | -0.0796
RRIRIRPPRLPRPRPRPGMKPRP | -0.126
RRIRYRPPRLPRPRPRPVWFPRP | -0.129
RRIRQRPPRLPRPRPRPQQYPRP | -0.0402
RRIRMRPPRLPRPRPRPVPMPRP | 0.44
RRIRSRPPRLPRPRPRPLYEPRP | -0.438
RRIRDRPPRLPRPRPRPETIPRP | 0.17
RRIRPRPPRLPRPRPRPFNNPRP | -0.836
RRIRWRPPRLPRPRPRPPWSPRP | 0.378
RRIRFRPPRLPRPRPRPENYPRP | 0.0219
RRIRFRPPRLPRPRPRPLHFPRP | 0.0202
RRIRDRPPRLPRPRPRPVMFPRP | 0.16
RRIRGRPPRLPRPRPRPCNIPRP | -0.284
RRIRQRPPRLPRPRPRPEVVPRP | 0.196
RRIRQRPPRLPRPRPRPEVKPRP | -0.0062

Sequence | shrunken log2 fold change
RRIRSRPPRLPRPRPRPWKLPRP | -0.221
RRIRKRPPRLPRPRPRPCWLPRP | 0.246
RRIRSRPPRLPRPRPRPAAIPRP | 2.36
RRIRHRPPRLPRPRPRPLMEPRP | -0.348
RRIRVRPPRLPRPRPRPENIPRP | -0.125
RRIRMRPPRLPRPRPRPQDFPRP | 0.0427
RRIRVRPPRLPRPRPRPPNEPRP | 0.345
RRIRRRPPRLPRPRPRPTLSPRP | -0.0436
RRIRERPPRLPRPRPRPNFCPRP | 0.00589
RRIRVRPPRLPRPRPRPTVMPRP | 0.126
RRIRKRPPRLPRPRPRPQPDPRP | 0.459
RRIRERPPRLPRPRPRPIETPRP | -0.00369
RRIRCRPPRLPRPRPRPHNYPRP | -0.831
RRIRLRPPRLPRPRPRPTQPPRP | 0.634
RRIRIRPPRLPRPRPRPFANPRP | -0.0225
RRIRCRPPRLPRPRPRPKQSPRP | 0.107
RRIRPRPPRLPRPRPRPPMLPRP | 0.18
RRIRFRPPRLPRPRPRPHYAPRP | -0.285
RRIRRRPPRLPRPRPRPDCGPRP | 0.16
RRIRVRPPRLPRPRPRPGGSPRP | 0.0297
RRIRGRPPRLPRPRPRPQCRPRP | 0.0701
RRIRARPPRLPRPRPRPHLEPRP | -0.124
RRIRVRPPRLPRPRPRPCEPPRP | 0.137

Sequence | shrunken log2 fold change
RRIRFRPPRLPRPRPRPPAIPRP | 0.363
RRIRERPPRLPRPRPRPRSSPRP | 0.116
RRIRYRPPRLPRPRPRPWQCPRP | 0.06
RRIRGRPPRLPRPRPRPNTKPRP | -0.066
RRIRIRPPRLPRPRPRPLQTPRP | 0.0711
RRIRTRPPRLPRPRPRPSSYPRP | -0.0381
RRIRHRPPRLPRPRPRPTAFPRP | -0.00502
RRIRFRPPRLPRPRPRPTGKPRP | 0.205
RRIRNRPPRLPRPRPRPLDFPRP | -0.386
RRIRMRPPRLPRPRPRPTIRPRP | 0.0273
RRIRCRPPRLPRPRPRPQYWPRP | -0.312
RRIRYRPPRLPRPRPRPPIIPRP | -0.148
RRIRPRPPRLPRPRPRPRHGPRP | 0.0491
RRIRTRPPRLPRPRPRPVYCPRP | -0.301
RRIRIRPPRLPRPRPRPHDRPRP | -0.289
RRIRLRPPRLPRPRPRPDGPPRP | 0.0394
RRIRKRPPRLPRPRPRPTLWPRP | 1.19
RRIRKRPPRLPRPRPRPKKLPRP | 0.16
RRIRIRPPRLPRPRPRPTSSPRP | -0.25
RRIRWRPPRLPRPRPRPDNCPRP | -0.015
RRIRHRPPRLPRPRPRPIRKPRP | -0.583
RRIRCRPPRLPRPRPRPEIDPRP | 0.138
RRIRKRPPRLPRPRPRPWICPRP | 0.044

Sequence | shrunken log2 fold change
RRIRGRPPRLPRPRPRPLRWPRP | 1.33
RRIRARPPRLPRPRPRPKMEPRP | 0.229
RRIRMRPPRLPRPRPRPFELPRP | 0.0846
RRIRPRPPRLPRPRPRPGGRPRP | 0.461
RRIRGRPPRLPRPRPRPPPFPRP | 0.887
RRIRVRPPRLPRPRPRPWMEPRP | -0.124
RRIRGRPPRLPRPRPRPQDRPRP | 0.297
RRIRWRPPRLPRPRPRPKPWPRP | 0.515
RRIRQRPPRLPRPRPRPKGEPRP | -0.031
RRIRLRPPRLPRPRPRPHPCPRP | -0.0967
RRIRSRPPRLPRPRPRPFCCPRP | -0.14
RRIRFRPPRLPRPRPRPGIEPRP | -0.0616
RRIRYRPPRLPRPRPRPVIHPRP | -0.0643
RRIRPRPPRLPRPRPRPIAHPRP | 0.125
RRIRYRPPRLPRPRPRPAVQPRP | -0.505
RRIRGRPPRLPRPRPRPQEGPRP | 0.0358
RRIRKRPPRLPRPRPRPTCDPRP | -0.00872
RRIRGRPPRLPRPRPRPAYSPRP | -0.0128
RRIRHRPPRLPRPRPRPDLLPRP | -0.0324
RRIRKRPPRLPRPRPRPPDAPRP | 1.35
RRIRQRPPRLPRPRPRPIMHPRP | -0.172
RRIRYRPPRLPRPRPRPTASPRP | -0.389
